What was measured:
Assay in all cases: two-hybrid library CCNG1;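 further: natural log of median RNA to DNA barcode read ratio; higher means stronger binding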
[1] = target: T1, 4H3010-bA
T1 chain: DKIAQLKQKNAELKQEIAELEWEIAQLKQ

[2] = target: T2, 4H968-bA
T2 chain: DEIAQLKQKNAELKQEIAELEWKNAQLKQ

[3] = target: T3, 4H346-bA
T3 chain: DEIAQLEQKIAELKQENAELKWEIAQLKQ

[4] = target: T4, 4H918-bA
T4 chain: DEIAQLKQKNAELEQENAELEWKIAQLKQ

[5] = target: T5, 4H457-bA
T5 chain: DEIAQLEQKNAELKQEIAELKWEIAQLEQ

[6] = target: T6, 4H3112-bA
T6 chain: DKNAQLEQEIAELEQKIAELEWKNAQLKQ

[7] = target: T7, 4H4073-bA
T7 chain: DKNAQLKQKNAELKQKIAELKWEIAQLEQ

[8] = target: T8, 4H3926-bA
T8 chain: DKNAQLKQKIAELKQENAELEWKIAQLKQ

[9] = target: T9, 4H855-bA
T9 chain: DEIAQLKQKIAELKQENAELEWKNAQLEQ

[10] = target: T10, 4H780-bA
T10 chain: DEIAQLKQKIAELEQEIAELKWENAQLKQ

[11] = target: T11, 4H953-bA
T11 chain: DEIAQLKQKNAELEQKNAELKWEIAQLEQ

[12] = target: T12, 4H575-bA
T12 chain: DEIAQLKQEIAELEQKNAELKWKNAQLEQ

[13] = target: T13, 4H797-bA
T13 chain: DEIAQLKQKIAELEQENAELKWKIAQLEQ

[14] = target: T14, 4H683-bA
T14 chain: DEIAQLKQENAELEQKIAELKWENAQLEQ

[15] = target: T15, 4H754-bA
T15 chain: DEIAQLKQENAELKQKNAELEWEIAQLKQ

[16] = target: T16, 4H3427-bA
T16 chain: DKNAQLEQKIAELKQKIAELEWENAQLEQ

[17] = target: T17, O5-bS
T17 chain: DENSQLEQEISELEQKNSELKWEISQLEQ

[18] = target: T18, O9-bS
T18 chain: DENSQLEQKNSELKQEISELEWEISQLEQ

[19] = target: T19, O6-bS
T19 chain: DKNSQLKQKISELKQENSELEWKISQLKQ

[20] = target: T20, O7-bS
T20 chain: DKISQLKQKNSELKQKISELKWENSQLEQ

[21] = target: T21, O4-bS
T21 chain: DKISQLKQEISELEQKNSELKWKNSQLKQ

[22] = target: T22, O8-bS
T22 chain: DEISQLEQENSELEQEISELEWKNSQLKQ

[23] = target: T23, 4H953-bN
T23 chain: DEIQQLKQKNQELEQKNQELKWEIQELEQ

[24] = target: T24, 4H3427-bN
T24 chain: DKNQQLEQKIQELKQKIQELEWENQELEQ

[25] = target: T25, 4H3855-bN
T25 chain: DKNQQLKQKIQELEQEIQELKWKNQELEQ

[26] = target: T26, 4H370-bN
T26 chain: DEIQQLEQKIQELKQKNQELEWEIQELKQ

[27] = target: T27, 4H908-bN
T27 chain: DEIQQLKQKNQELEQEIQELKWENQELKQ

[28] = target: T28, 4H754-bN
T28 chain: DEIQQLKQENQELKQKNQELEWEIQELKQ

[29] = target: T29, 4H568-bN
T29 chain: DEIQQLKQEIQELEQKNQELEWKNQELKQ

[30] = target: T30, 4H338-bN
T30 chain: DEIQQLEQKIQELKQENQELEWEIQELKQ

[31] = target: T31, 4H462-bN
T31 chain: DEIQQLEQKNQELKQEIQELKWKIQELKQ

[32] = target: T32, 4H454-bN
T32 chain: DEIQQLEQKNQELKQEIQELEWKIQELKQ

[33] = target: T33, 4H967-bN
T33 chain: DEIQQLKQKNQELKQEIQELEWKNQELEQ

[34] = target: T34, 4H918-bN
T34 chain: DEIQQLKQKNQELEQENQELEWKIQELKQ

[35] = target: T35, 4H72-bN
T35 chain: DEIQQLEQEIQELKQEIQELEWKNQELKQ

[36] = target: T36, 4H331-bN
T36 chain: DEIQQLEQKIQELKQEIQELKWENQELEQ

[37] = target: T37, 4H717-bN
T37 chain: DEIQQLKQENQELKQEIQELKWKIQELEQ

[38] = target: T38, 4H687-bN
T38 chain: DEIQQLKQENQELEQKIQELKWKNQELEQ

[39] = target: T39, 4H3606-bN
T39 chain: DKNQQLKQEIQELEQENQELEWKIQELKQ

[40] = target: T40, 4H797-bN
T40 chain: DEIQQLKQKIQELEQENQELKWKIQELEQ

[41] = target: T41, 4H883-bN
T41 chain: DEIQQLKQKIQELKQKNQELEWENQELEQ

[42] = target: T42, 4H3843-bN
T42 chain: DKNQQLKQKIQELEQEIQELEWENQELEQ

[43] = target: T43, 4H4001-bN
T43 chain: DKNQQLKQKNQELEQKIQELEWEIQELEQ

[44] = target: T44, 4H3782-bN
T44 chain: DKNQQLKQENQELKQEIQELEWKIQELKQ

[45] = target: T45, 4H3354-bN
T45 chain: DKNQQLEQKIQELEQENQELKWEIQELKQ

[46] = target: T46, 4H607-bN
T46 chain: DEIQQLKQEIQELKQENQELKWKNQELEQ

Question: What does the source list for DKIAQLKQKNAELKQEIAELEWEIAQLKQ [4H3010-bA]?
Answer: interaction score [1]: 0.824; interaction score [2]: -0.854; interaction score [3]: -0.9; interaction score [4]: -0.579; interaction score [5]: 1.48; interaction score [6]: -0.267; interaction score [7]: 0.722; interaction score [8]: 1.35; interaction score [9]: -1.32; interaction score [10]: -1.79; interaction score [11]: 0.368; interaction score [12]: -0.532; interaction score [13]: -0.928; interaction score [14]: 0.693; interaction score [15]: -0.693; interaction score [16]: 0.296

Question: With DKISQLKQEISELEQKNSELKWKNSQLKQ [O4-bS] as the binder, how does the interaction score [17] read?
Answer: -0.823

Question: What about the interaction score [18] of the same binder?
Answer: 0.414

Question: And the interaction score [19]?
Answer: 0.143

Question: And the interaction score [20]?
Answer: -0.221

Question: What about the interaction score [21] of the same binder?
Answer: -1.26

Question: What about the interaction score [22] of the same binder?
Answer: -2.55

Question: Which interaction score [23] does the source give for DEIQQLEQKIQELKQEIQELKWENQELEQ [4H331-bN] here?
Answer: -0.578

Question: And the interaction score [24]?
Answer: 1.12

Question: What about the interaction score [25] of the same binder?
Answer: 1.17

Question: What about the interaction score [26] of the same binder?
Answer: 0.508

Question: What about the interaction score [27] of the same binder?
Answer: -1.35

Question: What about the interaction score [28] of the same binder?
Answer: -0.762

Question: What about the interaction score [29] of the same binder?
Answer: -1.41

Question: What about the interaction score [30] of the same binder?
Answer: -0.434

Question: What about the interaction score [31] of the same binder?
Answer: -0.381

Question: And the interaction score [32]?
Answer: -0.999

Question: What about the interaction score [33] of the same binder?
Answer: -0.995

Question: And the interaction score [34]?
Answer: -0.476

Question: What about the interaction score [35] of the same binder?
Answer: 0.918

Question: And the interaction score [36]?
Answer: -0.214

Question: What about the interaction score [37] of the same binder?
Answer: -0.661

Question: What about the interaction score [38] of the same binder?
Answer: -0.624

Question: And the interaction score [39]?
Answer: -0.132

Question: What about the interaction score [40] of the same binder?
Answer: -0.866

Question: And the interaction score [41]?
Answer: -0.0918

Question: What about the interaction score [42] of the same binder?
Answer: -0.476

Question: And the interaction score [43]?
Answer: 0.329

Question: And the interaction score [44]?
Answer: -0.492

Question: What about the interaction score [45] of the same binder?
Answer: -0.055

Question: And the interaction score [46]?
Answer: -2.2

From paper PMC10397247
